Test results taken from PMC12443421 (2025).

What was measured:
[1] = target: wild-type unmodified 147 bp nucleosome (nucleosome core particle) (human, UniProt P04908 1-130; P62807 1-126; Q71DI3 1-136; P62805 1-103)
[2] = target: wild-type 185 bp nucleosome (with symmetric flanking DNA) (human, UniProt P04908 1-130; P62807 1-126; Q71DI3 1-136; P62805 1-103)

B1: KDM5A^CAT (lysine demethylase 5A, residues 1-801) (domain or fragment)
chain: MAGVGPGGYAAEFVPPPECPVFEPSWEEFTDPLSFIGRIRPLAEKTGICKIRPPKDWQPPFACEVKSFRFTPRVQRLNELEAMTRVRLDFLDQLAKFWELQGSTLKIPVVERKILDLYALSKIVASKGGFEMVTKEKKWSKVGSRLGYLPGKGTGSLLKSHYERILYPYELFQSGVSLMGVQMPNLDLKEKVEPEVLSTDTQTSPEPGTRMNILPKRTRRVKTQSESGDVSRNTELKKLQIFGAGPKVVGLAMGTKDKEDEVTRRRKVTNRSDAFNMQMRQRKGTLSVNFVDLYVCMFCGRGNNEDKLLLCDGCDDSYHTFCLIPPLPDVPKGDWRCPKCVAEECSKPREAFGFEQAVREYTLQSFGEMADNFKSDYFNMPVHMVPTELVEKEFWRLVSSIEEDVIVEYGADISSKDFGSGFPVKDGRRKILPEEEEYALSGWNLNNMPVLEQSVLAHINVDISGMKVPWLYVGMCFSSFCWHIEDHWSYSINYLHWGEPKTWYGVPSHAAEQLEEVMRELAPELFESQPDLLHQLVTIMNPNVLMEHGVPVYRTNQCAGEFVVTFPRAYHSGFNQGYNFAEAVNFCTADWLPIGRQCVNHYRRLRRHCVFSHEELIFKMAADPECLDVGLAAMVCKELTLMTEEETRLRESVVQMGVLMSEEEVFELVPDDERQCSACRTTCFLSALTCSCNPERLVCLYHPTDLCPCPMQKKCLRYRYPLEDLPSLLYGVKVRAQSYDTWVSRVTEALSANFNHKKDLIELRVMLEDAEDRKYPENDLFRKLRDAVKEAETCASVAQLL
A Kd [1] of 4 µM and a Kd [2] of 3 µM were found for B1 in this work.
